Experimental data from PMC12847774, “SERPINB3 enhances NPM1 sumoylation via inhibiting SENP3’s activity and promotes lung tumorigenesis” (Cell Death & Disease, 2025).

Target: T1, SENP3 purified protein (UniProt Q9H4L4 1-574)
T1 construct: SENP3; cloned into pET-28a(+) between BamHI and HindIII; also called wild-type SENP3; pET-28a (+)-SENP3; source: E. coli Rosetta (DE3), purified (Ni-NTA)
Experiment: co-IP; in vitro immunoprecipitation with Flag antibody using purified recombinant proteins
Conditions: both partners purified

T1 sequence (Q9H4L4 whole entry): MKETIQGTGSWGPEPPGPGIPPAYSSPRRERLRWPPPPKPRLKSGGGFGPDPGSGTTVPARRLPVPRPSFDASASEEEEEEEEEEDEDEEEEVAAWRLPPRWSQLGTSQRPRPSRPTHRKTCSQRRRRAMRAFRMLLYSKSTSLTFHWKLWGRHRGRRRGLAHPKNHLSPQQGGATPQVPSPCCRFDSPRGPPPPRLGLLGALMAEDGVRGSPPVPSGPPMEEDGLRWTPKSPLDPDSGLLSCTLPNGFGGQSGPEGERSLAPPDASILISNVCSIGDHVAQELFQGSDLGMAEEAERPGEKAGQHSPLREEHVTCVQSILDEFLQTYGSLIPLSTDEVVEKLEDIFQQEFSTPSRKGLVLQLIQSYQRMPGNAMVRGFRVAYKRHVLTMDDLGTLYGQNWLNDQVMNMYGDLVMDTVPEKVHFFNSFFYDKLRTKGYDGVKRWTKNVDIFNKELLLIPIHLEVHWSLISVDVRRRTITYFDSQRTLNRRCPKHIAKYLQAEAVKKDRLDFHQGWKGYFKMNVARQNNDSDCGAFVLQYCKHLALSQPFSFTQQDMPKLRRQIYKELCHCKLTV

binding result: binds
B1: Flag-SERPINB3 purified protein (natural protein, UniProt P29508 1-390, looked up)
chain: MNSLSEANTKFMFDLFQQFRKSKENNIFYSPISITSALGMVLLGAKDNTAQQIKKVLHFDQVTENTTGKAATYHVDRSGNVHHQFQKLLTEFNKSTDAYELKIANKLFGEKTYLFLQEYLDAIKKFYQTSVESVDFANAPEESRKKINSWVESQTNEKIKNLIPEGNIGSNTTLVLVNAIYFKGQWEKKFNKEDTKEEKFWPNKNTYKSIQMMRQYTSFHFASLEDVQAKVLEIPYKGKDLSMIVLLPNEIDGLQKLEEKLTAEKLMEWTSLQNMRETRVDLHLPRFKVEESYDLKDTLRTMGMVDIFNGDADLSGMTGSRGLVLSGVLHKAFVEVTEEGAEAAAATAVVGFGSSPTSTNEEFHCNHPFLFFIRQNKTNSILFYGRFSSP
notes: SERPINB3; cloned into pET-28a(+) between BamHI and HindIII; the methods name only pET-28a (+)-SERPINB3; also called SCCA1; pET-28a (+)-SERPINB3; source: E. coli BL21(DE3), purified (Ni-NTA)
